{"source": "patent US10202584B2", "about": "“Red-shifted luciferase-luciferin pairs for enhanced bioluminescence” (The Regents of the University of California, priority 2016, dated 2019)", "assay_in_all_cases": "purified protein, by the assay type", "details_in_all_cases": "other: apparent, 100 pM enzyme, substrate 0.78 to 50 μM, assay buffer pH 6.0, mean ± s.d., n = 3, 37.0 °C", "key": {"[1]": {"test_system": "O=c1c(Cc2ccccc2)nc2c(-c3ccccc3)[nH]c(-c3ccccc3)cn1-2", "method": "(§1) The final concentrations of all enzymes were 100 pM. Substrate concentrations varied from 0.78 to 50 μM, and peak bioluminescence intensities at individual substrate concentrations were used to fit the Michaelis-Menten equation. Data are shown as mean and s.d. of three independent experiments.\n(§2) DH10B cells containing corresponding pBAD plasmids were grown in 5 mL LB starter cultures containing ampicillin (100 μg/mL) at 37° C. and 250 rpm overnight. Each saturated overnight culture was diluted 100-fold into 2YT media containing the appropriate antibiotics and grown under the same conditions. When OD600 reached 0.7-0.9, the expression culture was induced with L-arabinose (0.2%, w/v %) and incubated at room temperature with shaking at 250 rpm for another 16 h. Cells were harvested by centrifugation at 4700 rpm for 15 min and lysed by sonication. The resulting cell lysate was clarified by centrifugation at 18,000 rpm for 30 min at 4° C. The supernatant was incubated with Ni-NTA agarose beads (Pierce) at 4° C. for 2 h. Agarose beads loaded to a plastic column were sequentially washed with 10 mL of wash buffer 1 (pH 8.0, 50 mM Tris HCl, 20 mM Imidazole, 300 mM NaCl, 1 mM DTT) and 10 mL of wash buffer 2 (pH 8.0, 50 mM Tris HCl, 50 mM Imidazole, 300 mM NaCl, 1 mM DTT), followed by elution with elution buffer (pH 8.0, 50 mM Tris HCl, 300 mM Imidazole, 300 mM NaCl, 1 mM DTT). Proteins were buffer-exchanged into Tris-HCl (50 mM, pH 7.4) containing 1 mM DTT using Thermo Scientific Snakeskin dialysis tubing, and next concentrated using 3-kDa Amicon Ultra Centrifugal Filters (EMD Millipore). Protein concentrations were determined using the Pierce Coomassie Bradford Protein Assay Kit (Thermo Fisher). For storage, glycerol was added to a final concentration of 50% (v/v) and the resultant mixtures were kept at −20° C.\n(§3) A Synergy Mx Microplate Reader (BioTek) was used for all in vitro bioluminescence characterizations. For kinetics measurements, no emission filter or monochromator was used. […]"}, "[2]": {"test_system": "O=c1c(Cc2ccccc2)nc2c([Se]c3ccccc3)[nH]c(-c3ccccc3)cn1-2", "method": "as §1, §2, §3"}, "[3]": {"test_system": "O=c1c(Cc2ccco2)nc2c(Cc3ccccc3)[nH]c(-c3ccccc3)cn1-2", "method": "as §1, §2, §3"}}}
{"substance": "NanoLuc luciferase (Oplophorus gracihrostris-derived, parent, SEQ ID NO: 1) (Oplophorus gracilirostris; A31E/A60N/A81I/F95D/I117V/K70R/L54V/L99Q/M102K/N193R/P142E/Q151K/Q38R/Q45L/V71I/Y165I)", "values": [{"measurement": "Km", "setting": "[1]", "value": "5.3 ± 0.2", "unit": "µM"}, {"measurement": "Km", "setting": "[2]", "value": "17.8 ± 1.0", "unit": "µM"}, {"measurement": "Km", "setting": "[3]", "value": "11.5 ± 0.6", "unit": "µM"}]}
